Values quoted from earlier work in article PMC5453503.
Values joined by “and” are separate entries in the source; they are usually repeats but may differ in a detail not shown here. Identical values can stand only once.

Target: VEGFR2 (Homo sapiens) (UniProt P35968)
Sequence of UniProt P35968 (P35968 20-1356): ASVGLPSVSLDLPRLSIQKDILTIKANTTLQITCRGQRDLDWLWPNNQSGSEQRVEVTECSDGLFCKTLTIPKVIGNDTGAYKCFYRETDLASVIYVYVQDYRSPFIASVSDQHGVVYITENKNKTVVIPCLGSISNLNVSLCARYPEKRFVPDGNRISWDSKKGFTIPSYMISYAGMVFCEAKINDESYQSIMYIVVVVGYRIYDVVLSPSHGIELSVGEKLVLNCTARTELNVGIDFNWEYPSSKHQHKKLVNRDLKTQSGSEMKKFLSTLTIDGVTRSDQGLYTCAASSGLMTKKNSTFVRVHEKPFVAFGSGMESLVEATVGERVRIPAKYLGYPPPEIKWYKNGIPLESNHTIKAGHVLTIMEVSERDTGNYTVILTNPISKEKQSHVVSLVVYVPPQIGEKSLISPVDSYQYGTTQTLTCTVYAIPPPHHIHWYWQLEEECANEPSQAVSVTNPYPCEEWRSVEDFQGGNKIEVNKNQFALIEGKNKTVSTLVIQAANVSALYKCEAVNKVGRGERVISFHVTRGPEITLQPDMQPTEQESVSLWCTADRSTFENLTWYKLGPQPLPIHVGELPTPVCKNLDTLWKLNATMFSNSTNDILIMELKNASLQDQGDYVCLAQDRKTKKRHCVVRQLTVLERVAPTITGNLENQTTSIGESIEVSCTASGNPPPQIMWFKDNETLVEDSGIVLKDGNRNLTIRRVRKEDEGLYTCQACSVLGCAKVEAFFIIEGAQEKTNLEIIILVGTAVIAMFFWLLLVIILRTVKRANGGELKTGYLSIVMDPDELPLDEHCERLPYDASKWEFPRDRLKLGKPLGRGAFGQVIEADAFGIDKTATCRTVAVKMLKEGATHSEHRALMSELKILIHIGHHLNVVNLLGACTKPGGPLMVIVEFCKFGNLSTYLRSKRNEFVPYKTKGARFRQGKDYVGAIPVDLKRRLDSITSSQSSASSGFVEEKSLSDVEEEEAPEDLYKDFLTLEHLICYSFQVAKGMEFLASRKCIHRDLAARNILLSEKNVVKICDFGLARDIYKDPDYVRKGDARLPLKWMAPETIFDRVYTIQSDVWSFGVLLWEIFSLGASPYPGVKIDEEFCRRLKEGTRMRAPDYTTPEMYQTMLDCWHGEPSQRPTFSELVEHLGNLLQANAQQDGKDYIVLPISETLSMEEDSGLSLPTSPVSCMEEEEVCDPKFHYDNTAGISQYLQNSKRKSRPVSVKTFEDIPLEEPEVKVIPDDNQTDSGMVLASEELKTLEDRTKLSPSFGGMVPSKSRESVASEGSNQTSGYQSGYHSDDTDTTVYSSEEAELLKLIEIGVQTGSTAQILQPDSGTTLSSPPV

VEGF165a (from UniProt P15692)
Kd: 410 pM and 760 pM
